Reference: the supplement of paper PMC9233669
Variants at the floor of the assay were thinned out.

What was measured:
biotinyl-Phe-oxazolone = assay: self-aminoacylation, catalytic enhancement (BFO) (fold over background); higher = more active; k-Seq, kA / k0A0; sequences stand for … in GGGAAUGGAUCCACAUCUACGAAUUC…UUCACUGCAGACUUGACGAAGCUG
How it was run: (§1)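 Mutagenized RNA pools (0.43 μM; 21-nt variable region) were treated with 2–1250 μM of each biotinyl-aminoacyl-oxazolone. Conditions were 50 μL HEPES/NaCl/KCl/MgCl2/CaCl2 buffer, 5% acetonitrile, pH 6.9–7.0, room temperature, 90 minutes. Catalytic enhancement, the median kA relative to the uncatalyzed rate, was derived from streptavidin capture, qPCR and Illumina sequencing.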

biotinyl-Leu-oxazolone = assay: self-aminoacylation, catalytic enhancement (BLO) (fold over background); higher = more active; k-Seq, kA / k0A0; sequences stand for … in GGGAAUGGAUCCACAUCUACGAAUUC…UUCACUGCAGACUUGACGAAGCUG
How it was run: as §1

biotinyl-Trp-oxazolone = assay: self-aminoacylation, catalytic enhancement (BWO) (fold over background); higher = more active; k-Seq, kA / k0A0; sequences stand for … in GGGAAUGGAUCCACAUCUACGAAUUC…UUCACUGCAGACUUGACGAAGCUG
How it was run: as §1

biotinyl-Met-oxazolone = assay: self-aminoacylation, catalytic enhancement (BMO) (fold over background); higher = more active; k-Seq, kA / k0A0; sequences stand for … in GGGAAUGGAUCCACAUCUACGAAUUC…UUCACUGCAGACUUGACGAAGCUG
How it was run: as §1

biotinyl-Val-oxazolone = assay: self-aminoacylation, catalytic enhancement (BVO) (fold over background); higher = more active; k-Seq, kA / k0A0; sequences stand for … in GGGAAUGGAUCCACAUCUACGAAUUC…UUCACUGCAGACUUGACGAAGCUG
How it was run: as §1

biotinyl-Ile-oxazolone = assay: self-aminoacylation, catalytic enhancement (BIO) (fold over background); higher = more active; k-Seq, kA / k0A0; sequences stand for … in GGGAAUGGAUCCACAUCUACGAAUUC…UUCACUGCAGACUUGACGAAGCUG
How it was run: as §1

Sequence | self-aminoacylation (biotinyl-Phe-oxazolone) | self-aminoacylation (biotinyl-Leu-oxazolone) | self-aminoacylation (biotinyl-Trp-oxazolone) | self-aminoacylation (biotinyl-Met-oxazolone) | self-aminoacylation (biotinyl-Val-oxazolone) | self-aminoacylation (biotinyl-Ile-oxazolone)
AAGUUUCCUAACAGUCGCAAG [Fam3.1 aminoacylation ribozyme variant] | 1.26 | 0.963 | 0.58 | 0.884 | 1.03 | 1.23
ACUCACCAAGGUCAUCGGGUG [Fam2.2 aminoacylation ribozyme variant] | 46.4 | 7.13 | 6.28 | 5.24 | 4.52 | 4.43
AAGUUUGCUAGCAGUCGCAAG [Fam3.1 aminoacylation ribozyme variant] | 1.85 | 1.04 | 0.91 | 1.03 | 1.08 | 1.19
CUACAUCAAAAAAUCGGUCUG [Fam1A.1 aminoacylation ribozyme variant] | 1.35 | 0.633 | 0.753 | 0.712 | 0.745 | 0.831
CUACCUCAAACACUCGGUCUG [Fam1A.1 aminoacylation ribozyme variant] | 1.74 | 1.31 | 1.93 | 1.08 | 1.6 | 1.22
AUUCACCUAGUUCAUCGGGUC [Fam2.2 aminoacylation ribozyme variant] | 0.49 | 0.903 | 0.582 | 0.906 | 1.17 | 0.996
CCACUUCAAACAAUCGGUUUG [Fam1A.1 aminoacylation ribozyme variant] | 80.3 | 2.57 | 39.5 | 1.37 | 1.83 | 1.39
CUACUUCAAACUAUCGGUCUU [Fam1A.1 aminoacylation ribozyme variant] | 0.957 | 0.822 | 0.796 | 0.833 | 0.968 | 1.03
AUUACCCCGGUCAUCGAGAGA [Fam2.1 aminoacylation ribozyme variant] | 1.03 | 0.708 | 1.07 | 0.8 | 0.651 | 0.935
AUUCACCCAGGUCACCGGGUG [Fam2.2 aminoacylation ribozyme variant] | 39.4 | 5.75 | 4.89 | 5.66 | 3.77 | 3.47
CCACACCUCCAGCAAUCGGUC [Fam1B.1 aminoacylation ribozyme variant] | 1.64 | 1.15 | 1.19 | 1.27 | 1.4 | 1.69
CUUCACCUGGGUCAUCGGGUG [Fam2.2 aminoacylation ribozyme variant] | 25 | 4.82 | 4.89 | 4.02 | 5 | 2.43
CUACUUCAAACCACCGGUCUG [Fam1A.1 aminoacylation ribozyme variant] | 0.963 | 0.795 | 1.25 | 1.09 | 0.954 | 1.03
AUUCACCUAGGUCAUGGCGUG [Fam2.2 aminoacylation ribozyme variant] | 59.8 | 13.2 | 8.17 | 9.82 | 5.9 | 5.83
AUUCACCUAGGUAAUUGGGUG [Fam2.2 aminoacylation ribozyme variant] | 32.1 | 6.35 | 4.01 | 4.54 | 2.63 | 2.94
AUUCAUCUAGGUCAUCGGGCG [Fam2.2 aminoacylation ribozyme variant] | 14.7 | 3.27 | 2.66 | 3.33 | 2.71 | 2.58
AUUAGCCUGGUCAUCGAGAGA [Fam2.1 aminoacylation ribozyme variant] | 1.49 | 1.43 | 1.35 | 1.08 | 1.25 | 1.63
CCACACUUCAUCCAAUCGGUC [Fam1B.1 aminoacylation ribozyme variant] | 0.689 | 0.854 | 0.581 | 0.811 | 0.912 | 0.883
AUUACCCCGGUCAGCGAGUGA [Fam2.1 aminoacylation ribozyme variant] | 31.4 | 4.92 | 5.45 | 4.82 | 3.28 | 3.32
CUACUUCAAACAAUCCAUCUG [Fam1A.1 aminoacylation ribozyme variant] | 1.08 | 0.546 | 0.402 | 0.489 | 0.748 | 0.656
AUACUUCAAACAGUCGGUCUG [Fam1A.1 aminoacylation ribozyme variant] | 0.584 | 0.996 | 0.831 | 0.965 | 0.699 | 0.876
CCACACUUCAAGCAUUUGGUC [Fam1B.1 aminoacylation ribozyme variant] | 0.631 | 0.77 | 0.912 | 0.691 | 0.851 | 0.835
CCACACUUCUAGCAAUCGGAC [Fam1B.1 aminoacylation ribozyme variant] | 0.585 | 0.979 | 0.61 | 0.665 | 0.612 | 0.941
CUACUUCAGACAAUCGGUCUG [Fam1A.1 aminoacylation ribozyme variant] | 1.19 | 0.807 | 0.857 | 0.758 | 0.822 | 0.782
AGUACCCUGGUCAUUGAGUGA [Fam2.1 aminoacylation ribozyme variant] | 37.2 | 7.4 | 9.07 | 6.37 | 3.39 | 3.86
CCACACUUCCAGCAAUCGUUC [Fam1B.1 aminoacylation ribozyme variant] | 1.22 | 0.64 | 0.75 | 0.642 | 1.05 | 1.09

Sequence | self-aminoacylation (biotinyl-Phe-oxazolone) | self-aminoacylation (biotinyl-Leu-oxazolone) | self-aminoacylation (biotinyl-Trp-oxazolone) | self-aminoacylation (biotinyl-Met-oxazolone) | self-aminoacylation (biotinyl-Val-oxazolone) | self-aminoacylation (biotinyl-Ile-oxazolone)
AAGUUUGCUAAUAGUUGCAAC [Fam3.1 aminoacylation ribozyme variant] | 0.862 | 0.853 | 0.841 | 0.933 | 0.83 | 1.06
CUACUUAAAACACUCGGUCUG [Fam1A.1 aminoacylation ribozyme variant] | 0.731 | 0.882 | 0.762 | 0.758 | 0.792 | 0.992
CUACUUCAUACAAUCGGUCUU [Fam1A.1 aminoacylation ribozyme variant] | 0.932 | 0.844 | 0.491 | 0.724 | 0.972 | 1.01
AAGUUUGCUAAAAGUCGCAAC [Fam3.1 aminoacylation ribozyme variant] | 0.796 | 1.25 | 1.01 | 1.1 | 0.948 | 1.08
AUUACCCUGGUCAUCGAGUUU [Fam2.1 aminoacylation ribozyme variant] | 14.8 | 7.87 | 6.31 | 7.8 | 4.61 | 3.52
AUUCACUUAGGGCAUCGGGUG [Fam2.2 aminoacylation ribozyme variant] | 24.5 | 3.98 | 3.48 | 3.03 | 2.72 | 2.91
CUUCACCUAGGUCCUCGGGUG [Fam2.2 aminoacylation ribozyme variant] | 34.1 | 7.45 | 6.69 | 6.74 | 4.26 | 3.4
AUUCUCCUAGGCCAUCGGGUG [Fam2.2 aminoacylation ribozyme variant] | 33 | 7 | 5.32 | 5.37 | 3.74 | 3.49
AAGCUUGCUAAAAGUCGCAAG [Fam3.1 aminoacylation ribozyme variant] | 5.12 | 3.1 | 3.43 | 3.31 | 1.79 | 2.16
AUUACCCUGGUCAUCUUGUGA [Fam2.1 aminoacylation ribozyme variant] | 22.6 | 4.41 | 4.57 | 4.75 | 2.33 | 2.27
AUUACCAUGGUCAUUGAGUGA [Fam2.1 aminoacylation ribozyme variant] | 63.6 | 12.1 | 13.8 | 11.8 | 5.51 | 5.76
AAGUUUGCUAAUGGUCGCGAG [Fam3.1 aminoacylation ribozyme variant] | 8.04 | 1.59 | 1.82 | 1.15 | 1.27 | 1.21
GUUCACCCAGGUCAUCGGGUG [Fam2.2 aminoacylation ribozyme variant] | 29.1 | 5.02 | 3.77 | 3.77 | 3.64 | 3.12
AUUCUCCUAGGUGAUCGGGUG [Fam2.2 aminoacylation ribozyme variant] | 26.4 | 4.94 | 4.65 | 3.62 | 3.62 | 3.17
CUACUUGAAACAAUCGUUCUG [Fam1A.1 aminoacylation ribozyme variant] | 0.5 | 0.645 | 0.379 | 0.614 | 0.561 | 0.635
AUUACCCUGGACAUGGAGUGA [Fam2.1 aminoacylation ribozyme variant] | 57.2 | 9.2 | 10.6 | 8.57 | 3.69 | 3.74
CUCGUUCAAACAAUCGGUCUG [Fam1A.1 aminoacylation ribozyme variant] | 10.2 | 1.31 | 6.95 | 0.961 | 1.07 | 1.09
AAGUUUGCUAAUACUUGCAAG [Fam3.1 aminoacylation ribozyme variant] | 0.999 | 0.586 | 0.685 | 0.582 | 0.625 | 0.743
CUUACCCUGUUCAUCGAGUGA [Fam2.1 aminoacylation ribozyme variant] | 7.83 | 4.33 | 6.94 | 4.32 | 2.86 | 2.29
CUACACUUCAAGCAAUCGGGC [Fam1B.1 aminoacylation ribozyme variant] | 0.999 | 1.27 | 2.02 | 1.95 | 1.42 | 1.48
AAGUUUGCUCAUUGUCGCAAG [Fam3.1 aminoacylation ribozyme variant] | 3 | 0.923 | 1.89 | 1.09 | 0.968 | 0.875
AUUACCCAGGUCAUCGAGUGC [Fam2.1 aminoacylation ribozyme variant] | 0.417 | 0.919 | 0.852 | 0.643 | 0.958 | 0.777
CCACACAUCAAGCACUCGGUC [Fam1B.1 aminoacylation ribozyme variant] | 0.805 | 0.724 | 0.94 | 1.02 | 1.18 | 0.935
AUUACCCUGGUAACCGAGUGA [Fam2.1 aminoacylation ribozyme variant] | 96.5 | 12.2 | 14.2 | 12.5 | 5.58 | 5.22
AAUACCCUGGACAUCGAGUGA [Fam2.1 aminoacylation ribozyme variant] | 10.5 | 4.14 | 5.44 | 3.95 | 2.25 | 2.25
